Data: paper PMC3246441, “Structural Basis of Response Regulator Inhibition by a Bacterial Anti-Activator Protein” (PLoS Biology, 2011)
Changes are numbered by the printed parent chain. Names and notes keep the numbering of the source.

T1: RapF-E71A (B. subtilis, UniProt P71002 2-381, E71A)
T1 construct: RapF, Bacillus subtilis, with one alanine substitution; Text S1 may tell
T1 sequence: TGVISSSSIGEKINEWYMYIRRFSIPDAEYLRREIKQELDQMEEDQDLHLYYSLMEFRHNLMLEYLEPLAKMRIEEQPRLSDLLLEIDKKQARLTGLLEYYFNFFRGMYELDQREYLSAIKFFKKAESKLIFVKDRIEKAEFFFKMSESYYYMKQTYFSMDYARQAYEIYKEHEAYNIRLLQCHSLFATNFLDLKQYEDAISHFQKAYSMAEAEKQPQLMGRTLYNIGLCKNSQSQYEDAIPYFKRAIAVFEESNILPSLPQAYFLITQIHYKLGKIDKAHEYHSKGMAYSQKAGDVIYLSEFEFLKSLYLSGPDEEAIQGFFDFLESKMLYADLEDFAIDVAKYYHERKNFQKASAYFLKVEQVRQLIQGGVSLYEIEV

T2: RapF-P27A (B. subtilis, UniProt P71002 2-381, P27A)
T2 construct: RapF, Bacillus subtilis, with one alanine substitution; Text S1 may tell
T2 sequence: T1 sequence with P26A, A70E

B1: ComA DNA binding domain (ComAC) (domain or fragment, B. subtilis, UniProt P14204 146-214, looked up)
chain: SSQKEQDVLTPRECLILQEVEKGFTNQEIADALHLSKRSIEYSLTSIFNKLNVGSRTEAVLIAKSDGVL
notes: also called His-ComAC
B2: ComA-T190A (His-ComA mutant) (natural protein, B. subtilis, UniProt P14204 1-214, looked up)
chain: MKKILVIDDHPAVMEGTKTILETDSNLSVDCLSPEPSEQFIKQHDFSSYDLILMDLNLGGEVNGMELSKQILQENPHCKIIVYTGYEVEDYFEEAIRAGLHGAISKTESKEKITQYIYHVLNGEILVDFAYFKQLMTQQKTKPAPSSQKEQDVLTPRECLILQEVEKGFTNQEIADALHLSKRSIEYSLASIFNKLNVGSRTEAVLIAKSDGVL
notes: ComA, Bacillus subtilis, full length, with one alanine substitution
B3: ComA-N194A (His-ComA mutant) (natural protein, B. subtilis, UniProt P14204 1-214, looked up)
chain: B2 chain with A190T, N194A
notes: as for B2
B4: ComA (wild-type full-length ComA, no tag named) (natural protein, B. subtilis, UniProt P14204 1-214, looked up)
chain: B2 chain with A190T
notes: ComA response regulator, Bacillus subtilis, full length; Native PAGE used 'either 10 µM ComA or 10 µM His-ComA as indicated'; Purification of ComA is in Text S1; also called ComAFL
B5: His-ComA (wild-type full-length ComA with His tag) (natural protein, B. subtilis, UniProt P14204 1-214, looked up)
chain: B2 chain with A190T
notes: ComA response regulator, Bacillus subtilis, full length; Purification of His-ComA is in Text S1; also called ComA2
B6: RapF (natural protein, B. subtilis)
chain: GSMTGVISSSSIGEKINEWYMYIRRFSIPDAEYLRREIKQELDQMEEDQDLHLYYSLMEFRHNLMLEYLEPLEKMRIEEQPRLSDLLLEIDKKQARLTGLLEYYFNFFRGMYELDQREYLSAIKFFKKAESKLIFVKDRIEKAEFFFKMSESYYYMKQTYFSMDYARQAYEIYKEHEAYNIRLLQCHSLFATNFLDLKQYEDAISHFQKAYSMAEAEKQPQLMGRTLYNIGLCKNSQSQYEDAIPYFKRAIAVFEESNILPSLPQAYFLITQIHYKLGKIDKAHEYHSKGMAYSQKAGDVIYLSEFEFLKSLYLSGPDEEAIQGFFDFLESKMLYADLEDFAIDVAKYYHERKNFQKASAYFLKVEQVRQLIQGGVSLYEIEV
notes: two heterologous residues (Gly-Ser) derived from the thrombin cleavage signal, left after removal of the N-terminal GST; RapF, Bacillus subtilis, residues 1-381; The purification is told under 'Protein Purification for Crystallization'; Monomer by SE AUC; also called wild-type RapF; source: E. coli BL21, purified (glutathione resin, thrombin cleavage, anion exchange, gel filtration); not shown: …
B7: PhrF peptide (peptide)
peptide: QRGMI
notes: mature PhrF signalling pentapeptide of Bacillus subtilis, cut from the pro-PhrF polypeptide; Free N- and C-termini as printed (NH2-QRGMI-COOH); also called synthetic PhrF peptide; NH2-QRGMI-COOH; source: synthetic peptide (LifeTein)
B8: ComA-R157A (His-ComA mutant) (natural protein, B. subtilis, UniProt P14204 1-214, looked up)
chain: B2 chain with R157A, A190T
notes: as for B2
B9: ComA-Y187A (His-ComA mutant) (natural protein, B. subtilis, UniProt P14204 1-214, looked up)
chain: B2 chain with Y187A, A190T
notes: as for B2

Legend:
RapF [1] = target: B6; experiment: crystal structure; RapF-ComAC co-crystals, vapor diffusion at 20°C, 1∶1 mixture of 100 µM RapF and ComAC; 6% PEG 8,000, 240 mM calcium acetate, 80 mM sodium cacodylate pH 6.5, 20% glycerol; 2.30 Å; settings: both partners purified
RapF [2] = target: B6; experiment: native gel or EMSA; 10 µM RapF and 10 µM ComA or His-ComA incubated in Buffer A (20 mM Tris pH 8.0, 300 mM NaCl, 5 mM MgCl2, 1 mM DTT, 5% glycerol) 30 min at 4°C; 12% Tris-glycine native PAGE at 4°C, Coomassie; disappearance of the ComA band as indicator; settings: both partners purified
RapF [3] = target: B6; experiment: native gel or EMSA; native PAGE binding studies with a broad concentration range of RapF and a fixed quantity of ComA (unpublished data), together with the qualitative gels; Kd is an estimate; settings: both partners purified
RapF-E71A = target: T1, RapF-E71A; experiment: native gel or EMSA; 10 µM RapF and 10 µM ComA or His-ComA incubated in Buffer A (20 mM Tris pH 8.0, 300 mM NaCl, 5 mM MgCl2, 1 mM DTT, 5% glycerol) 30 min at 4°C; 12% Tris-glycine native PAGE at 4°C, Coomassie; disappearance of the ComA band as indicator; settings: both partners purified
RapF-P27A = target: T2, RapF-P27A; experiment: as above; settings: both partners purified
[4] = target: the molecule itself; experiment: SEC; Superdex 200 HR10/30 in Buffer A; RapF 20 µM, His-ComA 40 µM, incubated 30 min at 4°C; fractions by SDS-PAGE; no PhrF
[5] = target: B5; experiment: SEC + other: total amino acid analysis; 40 µM RapF and 80 µM His-ComA in Buffer A on Superdex 200 HR10/30; fractions 12.0-13.5 ml, bands separated by SDS-PAGE and excised for total amino acid analysis (unpublished data); settings: both partners purified
RapF [6] = target: B6; experiment: SEC; Superdex 200 HR10/30 in Buffer A; RapF 20 µM, His-ComA 40 µM, with PhrF 200 µM, incubated 30 min at 4°C; fractions by SDS-PAGE; settings: both partners purified

B1: binds (RapF [1]).

B2: binds (RapF [2]).

B3: binds (RapF [2]).

B4 was tested, and the Kd (RapF [3]) was 1 to 10 µM, the binding result (RapF-E71A) was “binds” and the binding result (RapF-P27A) was “binds”.

With B5 the “stoichiometry N” value [4] was 2.

For B6, the “stoichiometry N” value [5] was 1.

B7: binds (RapF [6]).

B8: binds (RapF [2]).

B9: binds (RapF [2]).
